# Measurements published in PMC11784016.
# Experiments:
# Assay in all cases: co-IP; 293T cells co-transfected; 400 ug of cell lysate on anti-HA magnetic beads with RNaseA (50 ug/mL), 2 h at 4 C; co-IP buffer 50 mM Tris-Cl pH 7.4, 1% Nonidet-P40, 10% glycerol, 150 mM NaCl; immunoblot with anti-HA and anti-V5 or anti-Flag; band intensities normalised to the immunoprecipitated protein, full-length protein set to 100%
# [1] = target: APOBEC3G with C-terminal triple HA tag (pcDNA3.1-APOBEC3G-HA) (human) (UniProt Q9HC16)
# [2] = target: APOBEC3G N-terminal domain, HA-tagged (pcDNA3.1 A3G NTD-HA) (human)
# Sequence of APOBEC3G N-terminal domain, HA-tagged (pcDNA3.1 A3G NTD-HA) (human) (Q9HC16 whole entry, the tested form may be a part): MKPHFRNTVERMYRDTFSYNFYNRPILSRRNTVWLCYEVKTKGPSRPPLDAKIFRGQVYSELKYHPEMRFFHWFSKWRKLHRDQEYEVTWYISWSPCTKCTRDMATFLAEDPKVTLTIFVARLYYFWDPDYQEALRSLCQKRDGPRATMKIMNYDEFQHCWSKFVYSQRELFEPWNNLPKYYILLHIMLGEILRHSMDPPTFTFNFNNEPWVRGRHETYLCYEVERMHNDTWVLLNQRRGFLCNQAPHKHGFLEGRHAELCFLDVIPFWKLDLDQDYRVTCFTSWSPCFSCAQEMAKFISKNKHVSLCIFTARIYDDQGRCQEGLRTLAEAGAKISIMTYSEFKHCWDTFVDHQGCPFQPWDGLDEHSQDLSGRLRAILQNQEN
# [3] = target: APOBEC3F-HA (pcDNA3.1 A3F-HA) (human) (UniProt Q8IUX4)
# [4] = target: APOBEC3F N-terminal domain, HA-tagged (pcDNA3.1 A3F NTD-HA) (human)
# Sequence of APOBEC3F N-terminal domain, HA-tagged (pcDNA3.1 A3F NTD-HA) (human) (Q8IUX4 whole entry, the tested form may be a part): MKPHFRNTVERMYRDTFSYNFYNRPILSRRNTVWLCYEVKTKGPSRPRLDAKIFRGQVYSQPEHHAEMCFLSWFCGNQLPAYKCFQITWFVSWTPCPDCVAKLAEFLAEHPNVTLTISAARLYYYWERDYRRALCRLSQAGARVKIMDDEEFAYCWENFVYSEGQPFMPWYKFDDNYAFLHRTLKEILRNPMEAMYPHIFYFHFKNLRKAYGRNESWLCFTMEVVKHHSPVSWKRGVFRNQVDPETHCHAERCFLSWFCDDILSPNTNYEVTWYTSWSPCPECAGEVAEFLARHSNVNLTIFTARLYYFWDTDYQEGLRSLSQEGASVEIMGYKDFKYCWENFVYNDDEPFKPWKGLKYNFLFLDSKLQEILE
substance,measurement,setting,value
"APOBEC3F C-terminal domain, Flag-tagged (pcDNA3.1 A3F CTD-Flag) (domain or fragment)",fold less immunoprecipitated than full-length A3F and A3F NTD,[1],17 fold
"APOBEC3F N-terminal domain, Flag-tagged (pcDNA3.1 A3F NTD-Flag) (domain or fragment)",fold more immunoprecipitated than full-length A3F,[2],7 fold
"APOBEC3G C-terminal domain, Flag-tagged (A3G CTD-Flag) (domain or fragment)",fold by which full-length A3G in the co-IP exceeded this construct,[3],42 fold
"APOBEC3G N-terminal domain, Flag-tagged (pcDNA3.1 A3G NTD-Flag) (domain or fragment)",fold less in the co-IP than the full-length protein,[4],1000 fold
same,fold by which full-length A3G in the co-IP exceeded this construct,[3],6 fold
